From patent US10646600B2, “HER2 polypeptides useful for imaging and monitoring tumors and cancers” (GE HEALTHCARE LIMITED, priority 2013, dated 2020)
“Also recorded” adds a separate entry of the source.

Assay: Biodistribution, tissues
Format: in vivo, mice
Text: Mice were sacrificed at different time points by exsanguination.

For “[^18F]GE-226: HER2-binding 18F-radiolabelled Affibody molecule ZHER2:2891”, the “Tissue uptake, Blood” value (5 min) was 0.82 ± 0.83 % ID/g tissue, the “Tissue uptake, Bone” value (5 min) was 1.20 ± 1.08 % ID/g tissue and the “Tissue uptake, Brain” value (5 min) was 0.33 ± 0.35 % ID/g tissue. For the same substance, the “Tissue uptake, Caecum empty” value (5 min) was 3.24 ± 3.76 % ID/g tissue, the “Tissue uptake, Caecum full” value (5 min) was 0.97 ± 1.09 % ID/g tissue and the “Tissue uptake, Colon empty” value (5 min) was 2.68 ± 2.44 % ID/g tissue. The “Tissue uptake, Colon full” value (5 min) was 2.40 ± 2.53 % ID/g tissue, the “Tissue uptake, Duodenum empty” value (5 min) was 3.21 ± 3.50 % ID/g tissue and the “Tissue uptake, Duodenum full” value (5 min) was 2.55 ± 2.17 % ID/g tissue. For the same substance, the “Tissue uptake, Gallbladder” value (5 min) was 3.22 ± 3.29 % ID/g tissue, the “Tissue uptake, Heart” value (5 min) was 3.10 ± 2.83 % ID/g tissue and the “Tissue uptake, Jejunum empty” value (5 min) was 2.48 ± 2.81 % ID/g tissue. For the same substance, the “Tissue uptake, Jejunum full” value (5 min) was 1.68 ± 1.38 % ID/g tissue, the “Tissue uptake, Kidney” value (5 min) was 15.02 ± 6.99 % ID/g tissue and the “Tissue uptake, Liver” value (5 min) was 2.90 ± 2.96 % ID/g tissue. For the same substance, the “Tissue uptake, Lung” value (5 min) was 3.90 ± 3.84 % ID/g tissue, the “Tissue uptake, Muscle” value (5 min) was 0.88 ± 0.81 % ID/g tissue and the “Tissue uptake, Plasma” value (5 min) was 12.71 ± 14.90 % ID/g tissue. The “Tissue uptake, Spleen” value (5 min) was 3.18 ± 2.66 % ID/g tissue, the “Tissue uptake, Stomach empty” value (5 min) was 2.02 ± 1.62 % ID/g tissue and the “Tissue uptake, Stomach full” value (5 min) was 1.47 ± 1.85 % ID/g tissue. For the same substance, the “Tissue uptake, Urine” value (5 min) was 148.33 ± 127.65 % ID/g tissue, the “Tissue uptake, Blood” value (15 min) was 2.00 ± 0.75 % ID/g tissue and the “Tissue uptake, Bone” value (15 min) was 3.05 ± 0.88 % ID/g tissue. For the same substance, the “Tissue uptake, Brain” value (15 min) was 0.34 ± 0.11 % ID/g tissue, the “Tissue uptake, Caecum empty” value (15 min) was 4.94 ± 2.84 % ID/g tissue and the “Tissue uptake, Caecum full” value (15 min) was 1.68 ± 0.85 % ID/g tissue. For the same substance, the “Tissue uptake, Colon empty” value (15 min) was 5.78 ± 2.99 % ID/g tissue, the “Tissue uptake, Colon full” value (15 min) was 3.43 ± 1.89 % ID/g tissue and the “Tissue uptake, Duodenum empty” value (15 min) was 5.16 ± 2.36 % ID/g tissue. The “Tissue uptake, Duodenum full” value (15 min) was 4.07 ± 1.48 % ID/g tissue, the “Tissue uptake, Gallbladder” value (15 min) was 5.10 ± 1.77 % ID/g tissue and the “Tissue uptake, Heart” value (15 min) was 3.52 ± 1.19 % ID/g tissue. The “Tissue uptake, Jejunum empty” value (15 min) was 4.92 ± 1.33 % ID/g tissue, the “Tissue uptake, Jejunum full” value (15 min) was 2.71 ± 1.01 % ID/g tissue and the “Tissue uptake, Kidney” value (15 min) was 65.82 ± 18.48 % ID/g tissue. For the same substance, the “Tissue uptake, Liver” value (15 min) was 4.58 ± 1.77 % ID/g tissue, the “Tissue uptake, Lung” value (15 min) was 5.99 ± 2.10 % ID/g tissue and the “Tissue uptake, Muscle” value (15 min) was 2.05 ± 0.86 % ID/g tissue. For the same substance, the “Tissue uptake, Plasma” value (15 min) was 9.41 ± 3.75 % ID/g tissue, the “Tissue uptake, Spleen” value (15 min) was 3.94 ± 3.24 % ID/g tissue and the “Tissue uptake, Stomach empty” value (15 min) was 3.75 ± 1.38 % ID/g tissue. The “Tissue uptake, Stomach full” value (15 min) was 2.68 ± 1.04 % ID/g tissue, the “Tissue uptake, Urine” value (15 min) was 283.73 ± 243.00 % ID/g tissue and the “Tissue uptake, Blood” value (30 min) was 0.53 ± 0.35 % ID/g tissue. The “Tissue uptake, Bone” value (30 min) was 1.59 ± 0.94 % ID/g tissue, the “Tissue uptake, Brain” value (30 min) was 0.13 ± 0.08 % ID/g tissue and the “Tissue uptake, Caecum empty” value (30 min) was 1.92 ± 0.89 % ID/g tissue. The “Tissue uptake, Caecum full” value (30 min) was 0.60 ± 0.27 % ID/g tissue, the “Tissue uptake, Colon empty” value (30 min) was 1.80 ± 0.94 % ID/g tissue and the “Tissue uptake, Colon full” value (30 min) was 1.00 ± 0.59 % ID/g tissue. The “Tissue uptake, Duodenum empty” value (30 min) was 2.91 ± 1.27 % ID/g tissue, the “Tissue uptake, Duodenum full” value (30 min) was 2.87 ± 1.18 % ID/g tissue and the “Tissue uptake, Gallbladder” value (30 min) was 2.74 ± 1.06 % ID/g tissue. The “Tissue uptake, Heart” value (30 min) was 1.27 ± 0.60 % ID/g tissue, the “Tissue uptake, Jejunum empty” value (30 min) was 1.87 ± 1.12 % ID/g tissue and the “Tissue uptake, Jejunum full” value (30 min) was 1.73 ± 1.25 % ID/g tissue. The “Tissue uptake, Kidney” value (30 min) was 23.54 ± 11.70 % ID/g tissue, the “Tissue uptake, Liver” value (30 min) was 2.27 ± 1.23 % ID/g tissue and the “Tissue uptake, Lung” value (30 min) was 3.15 ± 1.84 % ID/g tissue. For the same substance, the “Tissue uptake, Muscle” value (30 min) was 0.78 ± 0.48 % ID/g tissue, the “Tissue uptake, Plasma” value (30 min) was 4.10 ± 2.23 % ID/g tissue and the “Tissue uptake, Spleen” value (30 min) was 1.71 ± 0.90 % ID/g tissue. For the same substance, the “Tissue uptake, Stomach empty” value (30 min) was 1.56 ± 0.86 % ID/g tissue, the “Tissue uptake, Stomach full” value (30 min) was 1.28 ± 0.92 % ID/g tissue and the “Tissue uptake, Urine” value (30 min) was 438.65 ± 219.01 % ID/g tissue. The “Tissue uptake, Blood” value (60 min) was 0.32 ± 0.26 % ID/g tissue, the “Tissue uptake, Bone” value (60 min) was 0.68 ± 0.40 % ID/g tissue and the “Tissue uptake, Brain” value (60 min) was 0.10 ± 0.07 % ID/g tissue. The “Tissue uptake, Caecum empty” value (60 min) was 0.87 ± 0.53 % ID/g tissue, the “Tissue uptake, Caecum full” value (60 min) was 0.36 ± 0.22 % ID/g tissue and the “Tissue uptake, Colon empty” value (60 min) was 1.25 ± 0.94 % ID/g tissue. For the same substance, the “Tissue uptake, Colon full” value (60 min) was 0.84 ± 0.59 % ID/g tissue, the “Tissue uptake, Duodenum empty” value (60 min) was 2.29 ± 2.29 % ID/g tissue and the “Tissue uptake, Duodenum full” value (60 min) was 1.53 ± 0.59 % ID/g tissue. The “Tissue uptake, Gallbladder” value (60 min) was 3.92 ± 3.29 % ID/g tissue, the “Tissue uptake, Heart” value (60 min) was 0.64 ± 0.40 % ID/g tissue and the “Tissue uptake, Jejunum empty” value (60 min) was 0.86 ± 0.46 % ID/g tissue. For the same substance, the “Tissue uptake, Jejunum full” value (60 min) was 0.99 ± 0.39 % ID/g tissue, the “Tissue uptake, Kidney” value (60 min) was 11.94 ± 10.30 % ID/g tissue and the “Tissue uptake, Liver” value (60 min) was 1.64 ± 1.49 % ID/g tissue. The “Tissue uptake, Lung” value (60 min) was 1.81 ± 1.32 % ID/g tissue, the “Tissue uptake, Muscle” value (60 min) was 0.50 ± 0.45 % ID/g tissue and the “Tissue uptake, Plasma” value (60 min) was 1.76 ± 1.06 % ID/g tissue. For the same substance, the “Tissue uptake, Spleen” value (60 min) was 0.88 ± 0.56 % ID/g tissue, the “Tissue uptake, Stomach empty” value (60 min) was 0.86 ± 0.72 % ID/g tissue and the “Tissue uptake, Stomach full” value (60 min) was 0.53 ± 0.29 % ID/g tissue. The “Tissue uptake, Urine” value (60 min) was 535.62 ± 303.04 % ID/g tissue, the “kidney radioactivity levels versus tumors” value (60 min) was “comparable to levels in tumors” and the “excretion / clearance” value (mouse, in vivo) was “predominately and rapidly excreted via the renal route; also recorded: rapid renal clearance”. For the same substance, the “uptake in other organs, including the liver” value (mouse, in vivo) was “negligible”.
